The record followed here is PMC9237115, “Hsp multichaperone complex buffers pathologically modified Tau” (Nature Communications, 2022).

This test concerns the target T1, Full-length human Tau (MAPT) (human, UniProt P10636-8 1-441).
T1 construct: Tau (MAPT), human, full length; 15N-labelled for the HSQC NMR experiments; also called unmodified Tau; source: E. coli BL21 (DE3), pNG2 vector, purified (boiling, ammonium sulfate, cation exchange, gel filtration)
As to the kind of experiment: NMR titration; 2D 1H-15N HSQC of 24 µM 15N-labelled Tau (or PTau^Cdk2), 5 °C, 25 mM HEPES pH 7.4/100 mM KCl/5 mM MgCl2/1 mM TCEP; chaperones added. Particulars: both partners purified.

T1 sequence (P10636 other isoform, or with tags, fused parts or gaps): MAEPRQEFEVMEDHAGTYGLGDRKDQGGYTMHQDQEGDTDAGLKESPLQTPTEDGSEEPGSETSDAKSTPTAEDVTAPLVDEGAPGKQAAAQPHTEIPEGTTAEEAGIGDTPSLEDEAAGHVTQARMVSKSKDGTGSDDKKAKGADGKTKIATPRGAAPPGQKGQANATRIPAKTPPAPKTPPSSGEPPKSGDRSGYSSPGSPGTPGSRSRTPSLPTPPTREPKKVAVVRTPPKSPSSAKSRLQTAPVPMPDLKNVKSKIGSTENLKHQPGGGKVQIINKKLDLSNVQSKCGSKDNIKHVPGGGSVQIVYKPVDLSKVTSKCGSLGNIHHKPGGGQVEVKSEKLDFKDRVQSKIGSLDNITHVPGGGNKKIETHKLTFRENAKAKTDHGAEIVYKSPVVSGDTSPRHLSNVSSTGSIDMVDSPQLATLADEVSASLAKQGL

B1: p23 (PTGES3) (natural protein, human, UniProt Q15185 1-160, looked up)
chain: MQPASAKWYDRRDYVFIEFCVEDSKDVNVNFEKSKLTFSCLGGSDNFKHLNEIDLFHCIDPNDSKHKRTDRSILCCLRKGESGQSWPRLTKERAKLNWLSVDFNNWKDWEDDSDEDMSNFDRFSEMMNNMGGDEDVDLPEVDGADDDSQDSDDEKMPDLE
notes: p23 (PTGES3), human, full-length DNA in pET28a; source: E. coli Rosetta 2 (DE3), purified (Ni-NTA, thrombin cleavage, SEC); not shown: His6, N-terminal, cleaved
B1: the binding result is reported as “binds”.
